Assay: label from the status in PepcDB records

Row | Sequence | protein production
1 | QTEGLETVHIKGQRSYNAIATEKNGDYSSFAATVGTKIPASLREIPQSVSIITNQQVKDRNVDTFDQLARKTPGLRVLSNDDGRSSVYARGYEYSEYNIDGLPAQMQSINGTLPNLFAFDRVEVMRGPSGLFDSSGEMGGIVNLVRKRPTKAFQGHAAAGFGTHKQYKAEADVSGSLNSDGSVRGRVMAQTVGASPRPAEKNNRRETFYAAADWDINPDTVLGAGYLYQQRRLAPYNGLPADANNKLPSLPQHVFVGADWNKFKMHSHDVFADLKHYFGNGGYGKVGMRYSDRKADSNYTFAGSKLNNTGQADVAGLGTDIKQKAFAVDASYSRPFALGNTANEFVIGADYNRLRSTNEQGRSTLSKSVALDGFRALPYNGILQNARAGNKGFNHSVTEENLDETGLYAKTVFRPLEGLSLIAGGRVGHHKIESGDGKTLHKASKTKFTSYAGAVYDIDGSNSLYASASQLYTPQTSIGTDGKLLKPREGNQFEIGYKGSYMDDRLNTRVSFYRMKDKNAAAPLDSNNKKTRYAALGKRVMEGVETEISGAMTPKWQIHAGYSYLHSQIKTASNSRDEGIFLLMPKHSANLWTTYQVTSGLTIGGGVNA | failed
2 | QTQVNAEKKIQVEFVSANPTSSLHVGHGRGAAYGMTVANLLEATGAQVDREYYVNDAGRQMDILATSTYLRYLELLGQPLVFPKNAYQGDYVKEIAQSIIDKDGDAYVRSVADVYRNVPEDVQYAEELDSEGNKVVLSGDKEKHIDGLIANSQQLIGQGYRVFHQAALKAILDDIKDDLADFGVTFDQWFSEASLTQKIDEALQTLDQRGYLYEKEGNIWFKSTKFGDEKDRVVKRRNGQTTYFASDIAYHLDKLQRGYTHIVDIWGSDHHGYIARVKAAIDAMGYDSSKLTVLLVQFVSLWRGGEMVQMSSRSGQFVTLRELRQEVGNDAARFYYVMRKSEQHIDFDLDLAVSQSKDNAVYYIQYAHARICRMLEKANS | failed
3 | QVKSERSQKIFLEFVSANPTGPLHIGHARGAVFGDSLAKIARFLGHEVLCEYYVNDMGSQIRLLGLSVWLAYREHVLKESVTYPEVFYKGEYIIEIAKKANNDLEPSLLKENEETIIEVLSGYARDLMLLEIKDNLDALGIHFDSYASEKEVFKHKDAVFEQLEKANALYEKDSKIWLKSSLYQDESDRVLIKEDKSYTYLAGDIVYHDEKFKQDYTKYINIWGADHHGYIARVKASLEFLGYDSNKLEVLLAQMVRLLKDNEPYKMSKRAGNFILIKDVVDDVGKDALRFIFLSKRLDTHLEFDVNTLKKQDSSNPIYYIHYANSRIHTMLEKSPFSKEEVLQTP | failed
4 | QVSKTYYVSKPGTLISMMTEEEANSITHLTLTGKLNAEDFRHLRDEFPSLKVLDISNAEIKMYSGKAGTYPNGKFYIYMANFVPAYAFSNVVNGVTKGKQTLEKVILSEKIKNIEDAAFKGCDNLKICQIRKKTAPNLLPEALADSVTAIFIPLGSSDAYRFKNRWEHFAFIEGEPLETTIQVGAMGKLEDEIMKAGLQPRDINFLTIEGKLDNADFKLIRDYMPNLVSLDISKTNATTIPDFTFAQKKYLLKIKLPHNLKTIGQRVFSNCGRLAGTLELPASVTAIEFGAFMGCDNLRYVLATGDKITTLGDELFGNGVPSKLIYKK | not failed
5 | QYDPYKNPESAQTRRNTVLQQMYQDKNISKKEYDQAVATPVTDGLKELKQKSTYPKYMDNYLKQVISEVKQKTGKDIFTAGL | failed
6 | RAKLMEERETSLKDSVEVAFDAVRLIANNPNLSEAEAKQQVKAVLTNIRYGSDGYFFAYDAQGTNLVHPIQPELVGQNLWQLQDERGDFLIQ | failed
7 | RDKYYLITHGSQDPYWTSLFQGAKKAAEELKVDLQILAPPGANDVPKQVQFIESALATYPSGIATTIPSDTAFSKSLQRANKLNIPVIAVDTRPKDKTKNPYLVFLGSDNLLAGKKLGEKALELTPSAKRALVLNPQPGHIGLEKRAYGIKTILQDKGIFFEELDVGTDPNQVQSRVKSYFKIHPETNIIFCLTSQALDPLGQMLLHPDRYDFNYQPQVYSFDKTPNTVSLIHKKLVNYVMDQQPFLMGYLSITQLVLMNRYQLNPVNINTAM | not failed
8 | REHDFDDLKFEHFLASAAGAFPAFLEVAEKRIIGEGVLRAVKESMRWHRAENVHFGAFLLLVPLISSWDAGGMVDIAEAARNRLRRTDFRDSLSVLEAFRLSNARVVEAGELNLKDRKTEEEIAQKKINLYEWMKMAPEENLIARELVDGFKISIEGAKFLLSFGNSGKAVVELYYHLLSKFPDPLVIAKMGREYAEKITEWAEKARTEEERKELDEKLLKDGANPGTIADLTASSIFLALAEGWR | not failed
9 | REITLDDAALLQRFFVENPEYFHIVHGAAPQPDEARDEIDDALPAGWSYTHKWKIGYFDSEGRLLAFVSIVTDLLAQGVWHIGLFMLATPCHGSSLARQLHAELEAWAAGEGARWLRLSVVQDNARAQGFWNACGYAQVRTRDGIELGRLQHQVRIMIKPL | failed
10 | RGNLGQSQKVLIEFVSANPTGPLHVGHGRGAAFGATLGNVLKAAGYDVTLEYYVNDAGRQMNILAVSVWLRYLELAGEPIVFPANGYKGQYVYEIAQEIWSEQGNQFVHPWISVVENLPADEPEGGDKETYIDAIIARAQSLLGKDGFANFHQHALKTVLDDIKDDLQAFGVRFDSWFSEQSLFEDGSIEKGIQALKDRGHTYEREGALWFRATDFGDEKDRVLVRANGQTTYFASDVAYHWNKYDRGFDRVIDIFGADHHGYVTRIKTAVKALGHDESALDVILVQFAILYRGGDRVQMSTRSGSFVTLRELREEVGNDAARYFYVARKPEQHMDFDLDLAKSESSDNPVYYIQYAHARICSVLRQLKERGLKWDKDMGL | failed
11 | RISWVGEAVKTDGKKSYYKKVCIDAETLEVGDCVSVIPDDSSKPLYLARVTALWEDSSNGQMFHAHWFCAGTDTVLGATSDPLELFLVDECEDMQLSYIHSKVKVIYKAPSENWAMEGGMDPESLLEGDDGKTYFYQLWYDQDYARFESPPKTQPTEDNKFKFCVSCARLAEMRQKEIPRVLEQLEDLDSRVLYYSATKNGILYRVGDGVYLPPEAFTFNIKLSSPVKRPRKEPVDEDLYPEHYRKYSDYIKGSNLDAPEPYRIGRIKEIFCPKKSNGRPNETDIKIRVNKFYRPENTHKSTPASYHADINLLYWSDEEAVVDFKAVQGRCTVEYGEDLPECVQVYSMGGPNRFYFLEAYNAKSKSFEDPPNHARSP | failed
12 | RKFEGMKTVQLICIKMSCIMLFFVSGYAKGTQEEHTMQFGEEKTTYLLHLPKGYIQGKAYSLVVNFHGLGSAAIKHQHYCQLDAVADKEGFIAVYPQSYHQGWNAGLGFTSYIQGHDDIAYFNALLDTLEAAYSIDKNRIYVTGVSLGGSFTYRIACEMSKRIAAIASVSGLMSDSTLIYCTPERSVPVMHIHGTKDHIMRYTGMKQAFGAEEVVRLWALKDQCENKPDTVFVPNTSKKDHTSSILIKYTHCANGSEVWFYKIYNGGHTWPGAAKAFKLMGRKSKDFNG | failed
13 | RKIFTNKCERAGCRQREMMKLTCERCSRNFCIKHRHPLDHDCSGEGHPTS | not failed
14 | RKILDSKAIDLMNALMRLNQIRPGLQYKLLSQSGPVHAPVFTMSVDVDGTTYEASGPSKKTAKLHVAVKVLQAMGYPTGFDADI | not failed
15 | RLLRLKLSSLGVLKVFPNRDEAYKDIFKDLVDSNEILLLGYKGNALLSNSDYPSRLEILEEYSRGQKIAIKALLLSPQAKQYVKKRSVELGEKNLHRNHSRDIEDSIVNFRKVKENGILDVECRLFSEALKWSLLFSDKYILVSFYNNKVRVKLSPCFKLRRSSMLGWAFEKHFRDLWEKKSIDAFTSYTRPCVIVVVGGSFTGKSIISNHLSNKYQFSGVLSTDMVRNFFRISTRDRKTYQTSTYRMDDSELNIQKNNVSNMIEQMLEIYRSRREKIIIEGMHLTEDFLRNINKQDCLIIGLDNKRDINDRLDLKMKTTREEVSKKTEDEKKRINEIHYGIIECCKRNNFKVVEFQDIEDAKDKCEHLVEEFFTQRSKR | failed
16 | RLPEVAHLLARVHNSELLHRMLRKVGGQSVRPQDFIQQYLQDLPDDLRHHPLMARVLDELRGTAPTLPATDYRVCHGDLNHKNWLLSDRQQLYLVDWDSARFADPASDISMLLCEYVPLSDWQQWLSEYGETMTTALRTRVVWYAKINLLLNIKDNYYRNQYHQMNHEIIFLEELSQYEV | failed
17 | RLRHCNHHDPHGFYGWHETEAGSVIRTRQVGATQVNLLIDDTSHVMTPIGDDIFAIDLGHRERADYRLEVTWPDQEPQVKADPYYFLPTVG | failed
18 | RLSAREAIALLSDDFDRLPVAEGAYAPDGPLSWQGYDASRARATERTGEDESVVCGRARIDGTPAVLIAFEFGFLGGSLGERTGDRLEAAYTYARAHRLPVVSLVATGGSRMQEGMLALTQLQRVARQSALTRAAGLPQLAVLRDPTTGGGWATLGAGADVVLALPGVQVGFAGSRVRPPDADPAAYTAQAQLAAGSIDAVVRPQELRETVGLWLALLTAPSTEP | failed
19 | RMPTRRWAPGTQCITKCEHTRPKPGELAFRKGDVVTILEACENKSWYRVKHHTSGQEGLLAAGALRER | not failed
20 | RNYNNPVVLCGFAGSTPTGVLAASYIVETLGMHQVAHLISQHIPPVAVFVGGKLRHPFRIYANNSNTVLVAMCEVPISSAHIYEISNTLMNWIDQVGASEIVIMEGSPANGIPEERPVFAVAEKPKLDKFKKAGIQPADSAIIAGMGGGILNECLVRKITGLSFITPTSVDIPDPGAVLSIIEAINKAYNLKIKTDLLEEQVKALDEQIKKIEEQYKELQEKQKEPQSMYG | not failed
21 | RPNVERDAQRRVNIRVTDEIVTALNERRIVMAFEPVVQAVSRAPAFHECLVRMKQDDGELLLAPDIVPVAEKLGLIRLVDHRVLELVVAELAAAPGVELSLNISPDTTMDADWWASIESLLGANPGVAERLIVEITETVAIQDLDDVRGFVNRLKNFGARIAIDDFGAGYTSFRNLRNLGVDIVKIDGAFVQNIARSADDRAFVQTLIDLARRLEIKTVAEWVQDEASAIMLRDWGCDYIQGRLIGLA | failed
22 | RRAKALLDFERHDDDELGFRKNDIITIISQKDEHCWVGELNGLRGWFPAKFVEVLDERSKEYSIA | not failed
23 | RSEIVRLNSLMNDILNNIPVYLFVKDTGNDFRYLYWNKAFAEHSGISVQRAVGSTDADIFPDKKDAEHFREDDLKVMKLGRIEYLENYTTMSGEVRTVTTMKTVVPSGGQHPYIIGVSWDVT | failed
24 | RTDRTALIDLMQALNQHMTYTQGATEVDTSAAQAFAGRSGVCQDHTHAFLACARSLGVPARYVSGYLCSEDSEHLSSHAWAEAWIDDAWYSFDVTNQLAIPERHLKLAVGLDYLDACPVRGMRRG | failed
25 | RTNRLSAVQSNKMIVRAMERGVSAERLGKALGLSPQTIRQRFRLLNGICAEVVALLGDTDCPANVFNLLRQMKPLRQIEAAELMIGNKNLSVLLAKALLAATPPDQLVMIKKPSQDHQVSAESMARLERELAALQMQIKTVEEDYGPDVLHLTVIKGYLTKLLANAAVVRWLARHQPEYLKEFQSIAELTELPWADNGPEDDLQSTTAEG | not failed
26 | RVGIIVAAHGNSTASSMVEVATELLGSTPIAAVDMPLTVSPSDILECVAEKMKQVDEGEGVLMLVDMGSLAMLESRLEEKTGISIKTISNVTTSMVLDAVRKVNYLNLNLHAIYQSVTKDFIELWERQPAASGKK | failed
27 | SAATMKKAAAEDVNVTFEDQQKINKFARNTSRITELKEEIEVKKKQLQNLEDACDDIMLADDDCLMIPYQIGDVFISHSQEETQEMLEEAKKNLQEEIDALESRVESIQRVLADLKVQLYAKFGSNINLEADES | failed
28 | SASLLDKAKDFVADKLTAIPKPEGSVTDVDLKDVNRDSVEYLAKVSVTNPYSHSIPICEISFTFHSAGREIGKGKIPDPGSLKAKDMTALDIPVVVSYSILFNLARDVGVDWDIDYELQIGLTIDLPVVGEFTIPISSKGEIKLPTFKDFF | failed
29 | SAVPGGMFAPSLAVGAGFGLNMSQLLPFLPQSMVVLLGMVGFFAGMTRAPMTGFVIVMEMTDTSGMIIPLMATALIAASVSRLVSRRALYDGQVRLFLPQWRTQAGQ | failed

Reference: a protein production outcome set (Wang et al. 2014)
